Results reported in FireProtDB (doi:10.1021/bi00011a035).

Conditions: Aspergillus oryzae (strain ATCC 42149 / RIB 40), 25 °C, GdnHCl, Absorbance, reversible: yes, whole UniProt chain shown

B1: Guanyl-specific ribonuclease T1 wild type, P00651 (protein)
chain: MMYSKLLTLTTLLLPTALALPSLVERACDYTCGSNCYSSSDVSTAQAAGYQLHEDGETVGSNSYPHKYNNYEGFDFSVSSPYYEWPILSSGDVYSGGSPGADRVVFNENNQLAGVITHTGASGNNFVECT
denaturant m value (pH 3, beta-alanine 0.1 M): 1.85 kcal/mol/M | denaturant midpoint (higher = more stable) (pH 3, beta-alanine 0.1 M): 2.42 M | unfolding free energy (pH 3, beta-alanine 0.1 M): 4.48 kcal/mol | denaturant m value (pH 3.5, beta-alanine 0.1 M): 1.7 kcal/mol/M | denaturant midpoint (higher = more stable) (pH 3.5, beta-alanine 0.1 M): 3.4 M | unfolding free energy (pH 3.5, beta-alanine 0.1 M): 5.78 kcal/mol | denaturant m value (pH 6, Bis-Tris 0.1 M): 1.36 kcal/mol/M | denaturant midpoint (higher = more stable) (pH 6, Bis-Tris 0.1 M): 6.49 M | unfolding free energy (pH 6, Bis-Tris 0.1 M): 8.82 kcal/mol | denaturant m value (pH 7, HEPES 0.1 M): 1.28 kcal/mol/M | denaturant midpoint (higher = more stable) (pH 7, HEPES 0.1 M): 7.26 M | unfolding free energy (pH 7, HEPES 0.1 M): 9.26 kcal/mol | denaturant m value (pH 8.5, taurine 0.1 M): 1.21 kcal/mol/M | denaturant midpoint (higher = more stable) (pH 8.5, taurine 0.1 M): 7.69 M | unfolding free energy (pH 8.5, taurine 0.1 M): 9.3 kcal/mol
